# Test results reported in patent publication US20200291105A1 (published 2020).
# Numbering of substitutions follows the chain as printed. Read-outs that look alike come from different tables or passages of the source.
# T1: mouse IL-25 (mouse, UniProt Q8VHH8 17-169)
# T1 chain: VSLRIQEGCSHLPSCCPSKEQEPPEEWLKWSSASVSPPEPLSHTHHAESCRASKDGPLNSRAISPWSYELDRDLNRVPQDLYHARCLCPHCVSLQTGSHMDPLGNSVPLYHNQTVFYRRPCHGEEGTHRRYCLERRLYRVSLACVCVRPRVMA
# T2: recombinant human IL-25 (R&D Systems) (human, UniProt Q9H293 33-177)
# T2 chain: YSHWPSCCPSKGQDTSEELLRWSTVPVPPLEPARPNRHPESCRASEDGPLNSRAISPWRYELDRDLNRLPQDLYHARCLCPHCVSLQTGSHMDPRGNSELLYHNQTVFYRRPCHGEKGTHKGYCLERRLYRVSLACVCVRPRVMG
# B1: ABM109.2 (antibody, V domains shown)
# VH: QVQLVQSGAEVKKPGASVKVSCKASGYTFSSYWIEWVRQAPGQGLEWIGQILPGIGSTNYNEKFKGRVTITADTSTSTVYMELSSLRSEDTAVYYCARGYGNYGDYWGQGTTVTVSS
# VL: DIVLTQSPASLAVSPGQRATITCRASESVDSYGNSFMHWYQQKPGQPPKLLIYRASNLESGVPARFSGSGSGTDFTLTINPVEAQDTANYYCQQSNEDPLTFGAGTKLELKR
# B2: ABM 109 (antibody, V domains shown)
# VH: EVKVVESGADLMKPGASVKISCKATGYTFSSYWIEWVKQRPGHGLEWIGQILPGIGSTNYNEKFKGKATFTADTSSNTAYMQLSSLTSEDSAVYYCARGYGNYGDYWGQGTTVTVSS
# VL: B1 VL with P15L, T22S, V62I, G72R, Q85D, T87V, N89T
# B3: ABM125 (antibody, V domains shown)
# VH: QVTLKVSGPGILQPSQTLSLTCSFSGFSLNTSGMGVGWIRQPSGKGLEWLAHIWWDDVKRYNPALKSRLTISKDTSGSQVFLKIASVDTADTATYYCARTLPHFFDYWGQGTTLTVSS
# VL: DIQMTQSPAIMSASPGEKVTISCSASSSVSYMYWYQQKSGSSPKPWIYRTSNLASGVPARFSGSGSGTSYSLTISSMEAEDAATYYCKQYHSYPPTWTFGGGTKLEIKR
# B4: mouse IL-25 (NS0) (ligand)
# chain: T1 chain
# Columns and labels:
# mouse IL-25 [1] = target: T1, mouse IL-25
# [2] = target: T2, recombinant human IL-25 (R&D Systems)
# mouse IL-25 [3] = target: T1, mouse IL-25; experiment: SPR
# hABM125.9 = experiment: SPR
# hABM125.10 = experiment: SPR
binder,measurement,setting,value
B1,Kd,mouse IL-25 [1],28 pM
B2,Kd,[2],4 pM
B3,Kd,mouse IL-25 [3],7.3 pM
B4,Kd,hABM125.9,733 pM
same,Kd,hABM125.10,1060 pM
